Assay results published in PMC3229523, “Identification of Lactoferricin B Intracellular Targets Using an Escherichia coli Proteome Chip” (PLoS ONE, 2011).
Ends that are not written are not given here. * marks the point of attachment. Biotin = O=C1N[C@H]2[C@H](CS[C@H]2CCCCC(=O)*)N1

How the values were obtained:
Test in all cases: peptide or protein array; E. coli proteome chip: purified His-tagged proteins printed in duplicate on Fullmoon slides, blocked with 1% BSA; 10 nM N-terminal biotinylated LfcinB with 1% BSA, room temperature, 1 h; detected with DyLight 649-labeled streptavidin, ratio to DyLight 549-labeled anti-His antibody; ProCAT normalisation, local cut-off; triplicate chips
Conditions in all cases: both partners purified
[1] = target: T1, Adi (E. coli K-12, UniProt P28629 1-755)
T1 construct: Adi, E. coli K-12
T1 sequence (looked up): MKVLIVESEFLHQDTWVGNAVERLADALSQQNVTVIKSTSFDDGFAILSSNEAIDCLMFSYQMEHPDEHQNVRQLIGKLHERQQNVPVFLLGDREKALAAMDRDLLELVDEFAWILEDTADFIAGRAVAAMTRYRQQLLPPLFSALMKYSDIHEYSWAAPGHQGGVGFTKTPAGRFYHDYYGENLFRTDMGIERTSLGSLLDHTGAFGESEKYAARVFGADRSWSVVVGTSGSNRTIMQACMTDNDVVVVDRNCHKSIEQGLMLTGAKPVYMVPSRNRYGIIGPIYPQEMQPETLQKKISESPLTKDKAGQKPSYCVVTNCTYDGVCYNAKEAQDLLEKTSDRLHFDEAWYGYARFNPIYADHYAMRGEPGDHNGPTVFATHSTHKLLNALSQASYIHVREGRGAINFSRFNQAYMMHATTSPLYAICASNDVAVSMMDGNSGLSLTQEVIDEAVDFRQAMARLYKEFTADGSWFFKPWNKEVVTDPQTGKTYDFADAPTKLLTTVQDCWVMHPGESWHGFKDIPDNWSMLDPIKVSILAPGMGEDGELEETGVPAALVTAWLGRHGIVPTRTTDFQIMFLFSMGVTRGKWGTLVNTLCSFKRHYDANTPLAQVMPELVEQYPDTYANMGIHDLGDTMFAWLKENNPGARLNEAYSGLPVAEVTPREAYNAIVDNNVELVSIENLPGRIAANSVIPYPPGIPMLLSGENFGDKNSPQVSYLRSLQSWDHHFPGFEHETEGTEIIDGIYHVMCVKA

[2] = target: T2, YchA (E. coli K-12, UniProt P0AGM5 1-269)
T2 construct: YchA, E. coli K-12
T2 sequence (looked up): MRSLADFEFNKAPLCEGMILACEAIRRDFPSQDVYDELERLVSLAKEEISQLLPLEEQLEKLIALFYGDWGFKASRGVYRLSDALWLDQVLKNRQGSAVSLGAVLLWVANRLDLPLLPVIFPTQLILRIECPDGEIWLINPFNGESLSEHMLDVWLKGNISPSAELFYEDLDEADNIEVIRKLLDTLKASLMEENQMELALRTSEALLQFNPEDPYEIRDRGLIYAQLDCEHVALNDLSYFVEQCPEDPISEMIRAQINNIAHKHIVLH

[3] = target: T3, SoxS (E. coli K-12, UniProt P0A9E2 1-107)
T3 construct: SoxS, E. coli K-12
T3 sequence (looked up): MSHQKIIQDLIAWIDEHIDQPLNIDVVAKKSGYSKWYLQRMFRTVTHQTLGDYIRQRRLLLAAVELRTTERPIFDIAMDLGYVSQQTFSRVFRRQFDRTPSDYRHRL

[4] = target: T4, YdaU (E. coli K-12, UniProt P76065 1-285)
T4 construct: YdaU, E. coli K-12
T4 sequence (looked up): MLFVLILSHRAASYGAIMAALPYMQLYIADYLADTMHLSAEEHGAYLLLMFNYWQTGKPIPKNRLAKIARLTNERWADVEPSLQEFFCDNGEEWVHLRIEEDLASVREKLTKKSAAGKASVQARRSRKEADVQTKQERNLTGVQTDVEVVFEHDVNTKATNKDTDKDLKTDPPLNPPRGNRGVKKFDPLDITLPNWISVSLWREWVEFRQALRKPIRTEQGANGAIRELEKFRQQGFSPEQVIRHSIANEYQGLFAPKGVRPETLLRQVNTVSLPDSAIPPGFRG

[5] = target: T5, AroD (E. coli K-12, UniProt P05194 1-252)
T5 construct: AroD, E. coli K-12
T5 sequence (looked up): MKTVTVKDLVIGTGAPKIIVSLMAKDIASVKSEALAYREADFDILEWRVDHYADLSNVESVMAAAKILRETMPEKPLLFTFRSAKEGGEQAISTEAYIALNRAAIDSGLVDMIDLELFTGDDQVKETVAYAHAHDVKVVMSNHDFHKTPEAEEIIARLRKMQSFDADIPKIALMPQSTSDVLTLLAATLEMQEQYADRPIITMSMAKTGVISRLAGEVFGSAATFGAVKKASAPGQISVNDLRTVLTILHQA

[6] = target: T6, YqiA (E. coli K-12, UniProt P0A8Z7 1-193)
T6 construct: YqiA, E. coli K-12

Measured: binding result

T6 sequence (P0A8Z7 whole entry): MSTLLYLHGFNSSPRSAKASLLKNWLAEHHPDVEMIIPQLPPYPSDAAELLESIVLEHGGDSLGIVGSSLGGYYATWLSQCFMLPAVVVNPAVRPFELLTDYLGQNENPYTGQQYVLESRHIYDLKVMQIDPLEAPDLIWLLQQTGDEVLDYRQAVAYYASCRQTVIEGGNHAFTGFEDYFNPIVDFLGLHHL

B1: N-terminal biotinylated Lactoferricin B (peptide, UniProt P24627 36-60, looked up)
peptide: Biotin-FKCRRWQWRMKKLGAPSITCVRRAF
modifications: ends and bridges not checked
notes: lactoferricin B (LfcinB), cationic antimicrobial peptide of 25 amino acids; also called biotinylated LfcinB; biotin-labeled LfcinB; source: bought: Kelowna Inc
binds: all assays above
